According to US20260250381A1:
Positions count from the first letter of the chain named. One block for each binder: values may come before it.

Assays:
human TREM2 (human) [1] = molecular target: T1, human TREM2 (human) (UniProt Q9NZC2); assay: 1st screen, 10 nM Ab
T1 sequence (looked up): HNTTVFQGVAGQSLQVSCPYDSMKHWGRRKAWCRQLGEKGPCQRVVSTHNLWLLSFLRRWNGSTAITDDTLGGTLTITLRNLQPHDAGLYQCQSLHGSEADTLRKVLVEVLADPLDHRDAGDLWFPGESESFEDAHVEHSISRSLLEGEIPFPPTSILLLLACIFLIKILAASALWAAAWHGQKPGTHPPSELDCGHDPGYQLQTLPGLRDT

human TREM2 (human) [2] = molecular target: T1, human TREM2 (human); assay: 2nd screen, 2 nM Ab
human TREM2 (human) [3] = molecular target: T1, human TREM2 (human); assay: 2nd screen, 10 nM Ab

Binding Signal (fold over 6E7 parental antibody) (human TREM2 (human) [1]): 4.71 fold | Binding Signal (fold over 6E7 parental antibody) (human TREM2 (human) [2]): 2.57 fold | Binding Signal (fold over 6E7 parental antibody) (human TREM2 (human) [3]): 4.64 fold
B1: 6E7 variant V14 (antibody, V domains shown)
VH: EVQLVQSGAEVKKPGESLKISCKGSGYSFGSYWIAWVRQMPGKGLEWMGIIYPGDQDTRYSPSFQGQVTISADKSISTAYLQWSSLKASDTAMYFCARGRTFYYDSSDYFDYWGQGTLVTVSS
VL: DIQMTQSPSSVSASVGDRVTITCRASQGISSWLAWYQQKPGKAPKLLIYAASRLQNGVPSRFSGSGSGTDFTLTISSLQPEDFATYFCQQADSFPRTFGQGTKLEIK

Binding Signal (fold over 6E7 parental antibody) (human TREM2 (human) [1]): 1.53 fold | Binding Signal (fold over 6E7 parental antibody) (human TREM2 (human) [2]): 0.84 fold | Binding Signal (fold over 6E7 parental antibody) (human TREM2 (human) [3]): 1.67 fold
B2: 6E7 variant V29 (antibody, V domains shown)
VH: B1 VH with G30K, Q56S, G99Q
VL: B1 VL with R53S

Binding Signal (fold over 6E7 parental antibody) (human TREM2 (human) [1]): 3.08 fold | Binding Signal (fold over 6E7 parental antibody) (human TREM2 (human) [2]): 2.63 fold | Binding Signal (fold over 6E7 parental antibody) (human TREM2 (human) [3]): 3.61 fold
B3: 6E7 variant V28 (antibody, V domains shown)
VH: B1 VH with G30Q, I50T, Q56S, G99Q, Y103F
VL: B1 VL with R53S, N56S, F94L

Binding Signal (fold over 6E7 parental antibody) (human TREM2 (human) [1]): 5.5 fold | Binding Signal (fold over 6E7 parental antibody) (human TREM2 (human) [2]): 5.67 fold | Binding Signal (fold over 6E7 parental antibody) (human TREM2 (human) [3]): 5.69 fold
B4: 6E7 variant V27 (antibody, V domains shown)
VH: B1 VH with G30T, Q56S, S61A, A97V, G99S
VL: B1 VL with R53S, N56R

Binding Signal (fold over 6E7 parental antibody) (human TREM2 (human) [1]): 2.64 fold | Binding Signal (fold over 6E7 parental antibody) (human TREM2 (human) [2]): 1.42 fold | Binding Signal (fold over 6E7 parental antibody) (human TREM2 (human) [3]): 2.9 fold
B5: 6E7 variant V24 (antibody, V domains shown)
VH: B1 VH with G30T, Q56S, T58V, G99S
VL: B1 VL with R53S, N56K, R96H

Binding Signal (fold over 6E7 parental antibody) (human TREM2 (human) [1]): 3.57 fold | Binding Signal (fold over 6E7 parental antibody) (human TREM2 (human) [2]): 2.83 fold | Binding Signal (fold over 6E7 parental antibody) (human TREM2 (human) [3]): 3.47 fold
B6: 6E7 variant V26 (antibody, V domains shown)
VH: B1 VH with G30T, A35G, I50T, Q56S, G99Q, F102M, Y112A
VL: B1 VL with R53S, N56R, F94Y

Binding Signal (fold over 6E7 parental antibody) (human TREM2 (human) [1]): 5.23 fold | Binding Signal (fold over 6E7 parental antibody) (human TREM2 (human) [2]): 4.72 fold | Binding Signal (fold over 6E7 parental antibody) (human TREM2 (human) [3]): 4.78 fold
B7: 6E7 variant V15 (antibody, V domains shown)
VH: B1 VH with G30A, I50T, Q56S, G99S
VL: B1 VL with R53W, F94Y

Binding Signal (fold over 6E7 parental antibody) (human TREM2 (human) [1]): 5.37 fold | Binding Signal (fold over 6E7 parental antibody) (human TREM2 (human) [2]): 4.22 fold | Binding Signal (fold over 6E7 parental antibody) (human TREM2 (human) [3]): 5.51 fold
B8: 6E7 variant V17 (antibody, V domains shown)
VH: B1 VH with Q56S, G99S
VL: B1 VL with R53S, L54R, F94S

Binding Signal (fold over 6E7 parental antibody) (human TREM2 (human) [1]): 4.23 fold | Binding Signal (fold over 6E7 parental antibody) (human TREM2 (human) [2]): 3.15 fold | Binding Signal (fold over 6E7 parental antibody) (human TREM2 (human) [3]): 4.7 fold
B9: 6E7 variant V25 (antibody, V domains shown)
VH: B1 VH with I50L, Q56S, G99S
VL: B1 VL with R53S, Q55A, F94M

Binding Signal (fold over 6E7 parental antibody) (human TREM2 (human) [1]): 4.01 fold | Binding Signal (fold over 6E7 parental antibody) (human TREM2 (human) [2]): 3.57 fold | Binding Signal (fold over 6E7 parental antibody) (human TREM2 (human) [3]): 4.04 fold
B10: 6E7 variant V16 (antibody, V domains shown)
VH: B1 VH with F29M, G30T, Q56G, G99S
VL: B1 VL with R53N
